The source of these data is paper PMC9427990, “Dynamic mechanisms of CRISPR interference by Escherichia coli CRISPR-Cas3”.

The data set addresses T1, EcoCascade-crRNA(EMX1) (Escherichia coli, UniProt Q46901;P76632;Q46899;Q46898;Q46897 1-502;1-160;2-363;1-224;2-199).
T1 sequence 1: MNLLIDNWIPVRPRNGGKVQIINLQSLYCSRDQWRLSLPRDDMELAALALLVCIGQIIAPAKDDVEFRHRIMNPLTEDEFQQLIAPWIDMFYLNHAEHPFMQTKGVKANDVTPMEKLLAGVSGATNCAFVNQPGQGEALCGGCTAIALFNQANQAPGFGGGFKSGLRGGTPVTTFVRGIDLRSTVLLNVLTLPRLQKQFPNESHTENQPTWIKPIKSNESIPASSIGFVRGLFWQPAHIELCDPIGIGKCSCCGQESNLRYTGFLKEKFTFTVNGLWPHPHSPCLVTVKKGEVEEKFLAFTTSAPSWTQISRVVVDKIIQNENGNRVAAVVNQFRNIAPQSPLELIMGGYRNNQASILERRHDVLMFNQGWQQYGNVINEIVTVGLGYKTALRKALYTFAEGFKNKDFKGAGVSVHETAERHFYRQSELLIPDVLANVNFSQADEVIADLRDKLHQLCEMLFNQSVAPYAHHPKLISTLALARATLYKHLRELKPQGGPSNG
T1 sequence 2: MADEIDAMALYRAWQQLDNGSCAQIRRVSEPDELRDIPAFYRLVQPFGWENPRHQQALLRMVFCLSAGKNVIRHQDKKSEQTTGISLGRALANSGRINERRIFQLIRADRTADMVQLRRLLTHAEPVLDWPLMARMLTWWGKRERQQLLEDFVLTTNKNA
T1 sequence 3: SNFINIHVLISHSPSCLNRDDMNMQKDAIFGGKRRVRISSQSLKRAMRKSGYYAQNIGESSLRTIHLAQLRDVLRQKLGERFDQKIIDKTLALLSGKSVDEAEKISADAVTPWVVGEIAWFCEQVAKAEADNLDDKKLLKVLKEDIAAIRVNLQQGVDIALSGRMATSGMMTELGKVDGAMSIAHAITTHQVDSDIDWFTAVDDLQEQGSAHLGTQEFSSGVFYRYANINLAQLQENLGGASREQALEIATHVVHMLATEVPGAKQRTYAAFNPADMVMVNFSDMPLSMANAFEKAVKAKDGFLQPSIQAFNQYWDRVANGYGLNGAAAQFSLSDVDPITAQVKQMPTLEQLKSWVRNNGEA
T1 sequence 4: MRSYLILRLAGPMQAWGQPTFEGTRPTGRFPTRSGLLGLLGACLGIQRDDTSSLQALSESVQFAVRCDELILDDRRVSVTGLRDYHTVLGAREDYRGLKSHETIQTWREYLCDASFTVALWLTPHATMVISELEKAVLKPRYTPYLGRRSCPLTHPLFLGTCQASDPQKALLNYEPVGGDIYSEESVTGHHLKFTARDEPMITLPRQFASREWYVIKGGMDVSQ
T1 sequence 5: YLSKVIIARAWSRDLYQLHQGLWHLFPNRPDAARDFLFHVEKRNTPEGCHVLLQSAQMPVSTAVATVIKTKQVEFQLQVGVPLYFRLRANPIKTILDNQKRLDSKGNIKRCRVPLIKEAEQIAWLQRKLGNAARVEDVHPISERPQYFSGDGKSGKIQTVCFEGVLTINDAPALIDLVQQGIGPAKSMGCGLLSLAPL
Put plainly: BLI; BLI: PBS, 0.01% Tween 20, 0.02% BSA, 20 uM EcoCascade analyte, biotinylated DNA on streptavidin; temperature not stated; EMSA conditions not in material. The conditions noted are these: protein: recombinant; tags: hexahistidine tag on Cas11, removed with HRV3C; copies: 1;2;6;1;1; label: Biotin-TEG; blunt.

Numbering of substitutions follows the chain as printed.

B1: EMX1-AAG-32-bio (n32, paired PAM) (dsDNA)
DNA 1: TGGCGCATTGCCACGAAGCAGGCCAATGGGGAGGACATCGATGTCACCTCCAATGACTAG
DNA 2: CTAGTCATTGGAGGTGACATCGATGTCCTCCCCATTGGCCTGCTTCGTGGCAATGCGCCA
For the molecule B1, the binding result was “binds”.

B2: EMX1-AAG-12-bio (n12) (dsDNA)
DNA 1: TGGCGCATTGCCACGAAGCAGGCCAATGGGTCTTCACGATCGTGACAAGACAATGACTAG
DNA 2: CTAGTCATTGTCTTGTCACGATCGTGAAGACCCATTGGCCTGCTTCGTGGCAATGCGCCA
As to B2, the binding result is listed as “no binding”.

B3: EMX1-AAG-0-bio (n0) (dsDNA)
DNA 1: TGGCGCATTGCCACGAAGACTTAACCGTTTTCTTCACGATCGTGACAAGACAATGACTAG
DNA 2: CTAGTCATTGTCTTGTCACGATCGTGAAGAAAACGGTTAAGTCTTCGTGGCAATGCGCCA
Turning to B3, the binding result is listed as “no binding”.

B4: EMX1-AAG-6-bio (n6) (dsDNA)
DNA 1: B3 DNA 1 with A19C, C20A, T21G, T22G, A23C, A24C
DNA 2: B3 DNA 2 with T37G, T38G, A39C, A40C, G41T, T42G
As to B4, the binding result is on record as “no binding”.
